# Experimental data reported in PMC4995489, “Staphylokinase has distinct modes of interaction with antimicrobial peptides, modulating its plasminogen-activation properties” (Scientific Reports, 2016).
# Entries after “also recorded” stand apart in the source; their conditions may differ. Bridges are numbered along the chain shown (N, C = ends). Where no end group is shown, it is not given here.
# T1: SakΔN10 (staphylokinase with its first ten residues deleted, C-terminal His6-tag) (Staphylococcus aureus, UniProt Q99SU7)
# T1 construct: Staphylokinase contains 136 amino acids and has a molecular weight of 15.5 kDa; made in house; host or cells: E. coli BL21 (DE3), pET29b
# T1 sequence (Q99SU7 38-163): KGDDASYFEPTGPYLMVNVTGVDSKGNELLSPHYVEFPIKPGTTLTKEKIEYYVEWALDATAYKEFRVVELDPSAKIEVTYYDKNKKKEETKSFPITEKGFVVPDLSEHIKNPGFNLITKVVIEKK
# T2: staphylokinase (Sak, full-length, sakSTAR sequence, C-terminal His6-tag) (Staphylococcus aureus, UniProt Q99SU7)
# T2 construct: Staphylokinase contains 136 amino acids and has a molecular weight of 15.5 kDa; made in house; host or cells: E. coli BL21 (DE3), pET29b, synthetic gene from GeneArt
# T2 sequence (Q99SU7 28-163): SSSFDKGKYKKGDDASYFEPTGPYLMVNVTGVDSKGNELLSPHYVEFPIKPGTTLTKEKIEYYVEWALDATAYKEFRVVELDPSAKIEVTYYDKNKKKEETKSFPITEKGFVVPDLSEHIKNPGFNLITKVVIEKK
# T3: Staphylokinase (full-length Sak, sakSTAR sequence) (Staphylococcus aureus, UniProt P68802 28-163)
# T3 construct: also called wtSak; full Sak; not shown: His6, C-terminal, kept
# T3 sequence: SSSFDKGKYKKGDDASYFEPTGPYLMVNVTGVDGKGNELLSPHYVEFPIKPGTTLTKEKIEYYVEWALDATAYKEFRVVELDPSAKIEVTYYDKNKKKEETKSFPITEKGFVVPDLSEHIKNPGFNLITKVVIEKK
# T4: SakΔN10 (staphylokinase with its first ten residues deleted) (Staphylococcus aureus, UniProt P68802 38-163)
# T4 construct: not shown: His6, C-terminal, kept
# T4 sequence: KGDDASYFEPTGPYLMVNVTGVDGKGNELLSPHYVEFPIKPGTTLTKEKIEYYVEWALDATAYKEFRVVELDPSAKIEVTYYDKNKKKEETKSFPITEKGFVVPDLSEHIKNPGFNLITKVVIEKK
# What was measured:
# [1] = biological target: T1, SakΔN10 (staphylokinase with its first ten residues deleted, C-terminal His6-tag); assay: ITC of antimicrobial peptide binding to SakΔN10; settings: 25 °C; for Kd / KD: 200–400 μM peptide titrated into 8 μM SakΔN10, 20 mM HEPES pH 7.4, One Set of Sites model, at least two experiments
# Protocol: (§1) Most peptides were purchased from Genscript (Piscataway, NJ) as custom-synthesized peptides synthesized using standard 9-fluorenylmethyoxycarbonyl (Fmoc) chemistry and they were purified by HPLC to >95% purity. […] The concentrations for most of the peptides were determined by UV absorption at 280 nm using molar extinction coefficients determined by ProtParam[54].
# (§2) A synthetic gene for staphylokinase with optimized codons for expression in Escherichia coli was purchased from GeneArt (Life Technologies). Staphylokinase genes have been cloned and sequenced from different origins: the bacteriophages sakφC and sak42D, and the genomic DNA of a lysogenic S. aureus strain (sakSTAR)[56]. These indicate amino acid sequence differences at three positions in the coding sequences. In this study, we have worked with the sakSTAR protein sequence as it is the most commonly used variant. The gene was subcloned into a pET29b (Novagen), giving the expressed protein a C-terminal His6-tag when expressed in E. coli BL21 (DE3) cells.
# (§3) All ITC runs were performed at 25 °C on a MicroCal VP-ITC microcalorimeter (Malvern, Westborough, MA). 200–400 μM peptide was titrated into 8 μM SakΔN10 or Sak in 20 mM HEPES, pH 7.4. […] Data analysis was performed using the MicroCal Origin software using the “One Set of Sites” binding model. At least two experiments were performed for each titration. Statistical analysis was performed to confirm the statistical validity of the differences in the KD values determined for LfcinB and Tritrp binding to SakΔN10 or Sak. p-values were calculated from Student’s t-tests at the 95% confidence level with a one-tailed hypothesis.
# [2] = biological target: T2, staphylokinase (Sak, full-length, sakSTAR sequence, C-terminal His6-tag); assay: ITC of antimicrobial peptide binding to full-length staphylokinase; settings: 25 °C, 200–400 μM peptide titrated into 8 μM Sak, 20 mM HEPES pH 7.4, One Set of Sites model, at least two experiments
# Protocol: as §1, §2, §3
# [3] = tested on: Sak-dependent plasminogen activation; settings: mCRAMP expression upregulated during staphylococcal pneumonia, intranasal infection mouse model; cited from earlier work
# Excerpt: In the present study, our aim was to evaluate staphylokinase as a more general interacting partner for antimicrobial peptides of different structures and origin. […] It is possible that additional factors may be involved in promoting its binding in vivo.
# [4] = biological target: T3, Staphylokinase (full-length Sak, …); assay: ITC; 200-400 μM peptide titrated into 8 μM Sak or SakΔN10 in the cell; 25 °C; 20 mM HEPES, pH 7.4, no salt; One Set of Sites model; at least two experiments each; settings: both partners purified
# [5] = biological target: T3, Staphylokinase (full-length Sak, …); assay: as above; settings: both partners purified; remark: listed apart in the source
# [6] = biological target: T4, SakΔN10 (staphylokinase with its first …); assay: as above; settings: both partners purified
# [7] = biological target: T3, Staphylokinase (full-length Sak, …); assay: ITC + NMR titration; ITC of mCRAMP into full-length Sak repeated at 37 °C, together with the NMR titration data; not shown; settings: both partners purified
# [8] = biological target: T4, SakΔN10 (staphylokinase with its first …); assay: ITC; 200-400 μM peptide titrated into 8 μM Sak or SakΔN10 in the cell; 25 °C; 20 mM HEPES, pH 7.4, no salt; One Set of Sites model; at least two experiments each; settings: both partners purified; remark: listed apart in the source
molecule,measurement,setting,value
CC[C@H](C)[C@@H]1NC(=O)[C@H](CO)NC(=O)[C@@H]2CCCN2C(=O)[C@H](C)NC(=O)CNC(=O)[C@H](CC(C)C)NC(=O)[C@H](CCCCN)NC(=O)[C@H](CCCCN)NC(=O)[C@H](CCSC)NC(=O)[C@H](CCCNC(=N)N)NC(=O)[C@H](Cc2c[nH]c3ccccc23)NC(=O)[C@H](CCC(N)=O)NC(=O)[C@H](Cc2c[nH]c3ccccc23)NC(=O)[C@H](CCCNC(=N)N)NC(=O)[C@H](CCCNC(=N)N)NC(=O)[C@@H](NC(=O)[C@H](CCCCN)NC(=O)[C@@H](N)Cc2ccccc2)CSSC[C@@H](C(=O)N[C@H](C(=O)N[C@@H](CCCNC(=N)N)C(=O)N[C@@H](CCCNC(=N)N)C(=O)N[C@@H](C)C(=O)N[C@@H](Cc2ccccc2)C(=O)O)C(C)C)NC(=O)[C@H]([C@@H](C)O)NC1=O [LfcinB],Kd,[1],0.37 µM
same,Kd,[2],27.3 µM
CC(C)C[C@H](NC(=O)[C@H](Cc1ccccc1)NC(=O)[C@@H]1CCCN1C(=O)[C@H](Cc1c[nH]c2ccccc12)NC(=O)[C@H](Cc1c[nH]c2ccccc12)NC(=O)[C@H](Cc1c[nH]c2ccccc12)NC(=O)[C@@H]1CCCN1C(=O)[C@H](Cc1ccccc1)NC(=O)[C@H](CCCNC(=N)N)NC(=O)[C@H](CCCNC(=N)N)NC(=O)[C@@H](N)C(C)C)C(=O)N[C@@H](CCCNC(=N)N)C(=O)N[C@@H](CCCNC(=N)N)C(N)=O [Tritrp],Kd,[1],2.42 µM
same,Kd,[2],11.2 µM
"GLLRKGGEKIGEKLKKIGQKIKNFFQKLVPQPEQ [mCRAMP, mouse cathelicidin-related antimicrobial peptide, α-helical]",KD,[1],weak interaction
same,augmentation of Sak-dependent plasminogen activation,[3],two-fold
same,KD,[2],no binding; also recorded: no interaction
melittin,N (stoichiometry),"[1]; 200–400 μM peptide into 8 μM SakΔN10, 20 mM HEPES pH 7.4, One Set of Sites model",~1
same,KD,[1],weak interaction
same,KD,[2],weak interaction
"FKCRRWQWRMKKLGAPSITCVRRAF (disulfide 3-20, Lactoferricin B, the peptide derived by intestinal proteolysis of bovine lactoferrin; also called LfcinB) [Bovine lactoferricin]",Kd,[4],27.2 µM
same,Kd,[5],27.3 µM
same,dH,[5],-19.6 kJ/mol
same,stoichiometry N,[5],0.98
same,Kd,[6],0.37 µM
same,dH,[6],-126 kJ/mol
same,stoichiometry N,[6],0.99
"GLLRKGGEKIGEKLKKIGQKIKNFFQKLVPQPEQ (Cathelicidin-related antimicrobial peptide (CRAMP), the C-terminal peptide of the mouse cathelicidin precursor; also called mCRAMP) [Mouse cathelicidin-related antimicrobial peptide]",Kd,[7],≥ 100 µM
same,stoichiometry N,[8],~1
"VRRFPWWWPFLRR-NH2 (Tritrpticin, a cathelicidin derived from porcine neutrophils; the amidated version was used) [Tritrp (C-terminally amidated tritrpticin)]",Kd,[5],11.2 µM
same,dH,[5],-12.6 kJ/mol
same,stoichiometry N,[5],1.16
same,Kd,[6],2.42 µM
same,dH,[6],-29.3 kJ/mol
same,stoichiometry N,[6],1.14
